Results reported in patent US20180015177A1 (Genentech, published 2018).
Where “and” joins values, the source holds several entries; their conditions need not be identical. Equal values may be shown once.

Legend:
[1] = biological target: Cynomolgus monkey Ly6E, N-terminal gD-tagged, stably expressed on PC3 cells (cynomolgus monkey); assay: Scatchard analysis on PC3 cells expressing gD-tagged cyno Ly6E (binding to the gD tag)
[2] = biological target: human Ly6E, N-terminal gD-tagged, stably expressed on PC3 cells (human) (UniProt Q16553); assay: Scatchard analysis on PC3 cells expressing gD-tagged human Ly6E (binding to the gD tag)
[3] = biological target: T1, human Ly6E, N-terminal gD-tagged, stably expressed on PC3 cells (human, UniProt Q16553 21-101); assay: Scatchard analysis on PC3 cells expressing human Ly6E
T1 construct: GPI-linked protein on cells; also called hu Ly6E; human Ly6E transfected PC3 cells; not shown: N-terminal gD tag of the retroviral vector
T1 sequence: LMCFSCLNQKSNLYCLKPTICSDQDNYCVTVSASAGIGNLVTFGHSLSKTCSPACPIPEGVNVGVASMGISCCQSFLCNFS
Procedure: (§1) A scatchard analysis was performed to determine affinity and binding sites per cell for the antibodies. Hu.9B12v12 antibody was iodinated several times using the Iodogen method. […] Competition reaction mixtures of 50 μL containing a fixed concentration of iodinated antibody and decreasing concentrations of unlabeled antibody were placed into 96-well plates. The PC3 cells stably transduced with retrovirus to express either recombinant human or Cynomolgus monkey gD tagged Ly6E were detached from flasks using Sigma Cell Dissociation Solution and were washed with binding buffer (DMEM with 2% FBS, 50 mM HEPES, pH 7.2, and 0.1% sodium azide). The washed cells were added at an approximate density of 200,000 cells in 0.2 mL of binding buffer to the 96-well plates containing the 50-μL competition reaction mixtures. […] The filters were counted on a Wallac Wizard 1470 gamma counter (PerkinElmer Life and Analytical Sciences; Wellesley, Mass.). The binding data were evaluated using New Ligand software (Genentech), which uses the fitting algorithm of Munson and Rodbard (1980) to determine the binding affinity of the antibody.

[4] = biological target: T2, Hu Ly6E (immobilized on CM5 chip for SPR) (human, UniProt Q16553 21-101); assay: SPR (Biacore T100), Hu Ly6E immobilized, IgG injected, single cycle kinetics, apparent KD
T2 construct: also called human Ly6E
T2 sequence: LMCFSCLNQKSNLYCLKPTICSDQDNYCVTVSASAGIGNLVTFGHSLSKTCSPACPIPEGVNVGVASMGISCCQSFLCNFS
Procedure: SPR Affinity Determination—Affinity determinations were performed by surface plasmon resonance using single cycle kinetics on a BIAcore™-T100. Hu Ly6E was immobilized via EDC/NHS chemistry according to supplier's instructions (˜20 response units (RU)) on a CM5 chip. For kinetic measurement, three-fold serial dilution of anti-Ly6E IgG (5 to 405 nM) in PBST were injected with 200 s for association & 300 s for dissociation at a flow rate of 30 ul/min at 25° C. Binding response was corrected by subtracting both the RU from a blank flow cell and from buffer run on the same flow cell. A 1:1 Languir model of simultaneous fitting of kₒₙ and koff was used to measure the apparent KD.

[5] = biological target: T3, Cynomolgus monkey Ly6E, N-terminal gD-tagged, stably expressed on PC3 cells (cynomolgus monkey, UniProt Q16553 21-101 (human entry)); assay: Scatchard analysis on PC3 cells expressing cyno Ly6E
T3 construct: also called cyno Ly6E; not shown: N-terminal gD tag of the retroviral vector
T3 chain: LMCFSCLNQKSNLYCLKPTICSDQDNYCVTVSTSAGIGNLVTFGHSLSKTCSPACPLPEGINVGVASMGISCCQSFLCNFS
Procedure: as §1

[6] = biological target: T1, human Ly6E, N-terminal gD-tagged, …; assay: cell-based competitive binding on human Ly6E PC3 cells; competitor mouse 9B12
Procedure: (§2) Cell-based Ly6E competitive binding assay—Cultured human Ly6E transfected PC3 cells were harvested with 5 mM EDTA containing PBS. Cells were washed with PBS and added onto a 384-well high binding plate (Meso Scale Discovery Technology (MSD); Gaithersburg, Md.). The plate was kept at room temperature for 1 hr to allow cells to adhere to the plate as described (See Lu, Y., Wong, W. L. & Meng, Y. G. A high throughput electrochemiluminescent cell-binding assay for therapeutic anti-CD20 antibody selection. Journal of Immunological Methods 314, 74-79 (2006)). The plate with cells was blocked with fetal bovine serum containing PBS for 1 hr and then cooled on ice. Serially diluted antibody variant samples were mixed with equal volume of fixed concentration of mouse 9B12 Ab. The mixtures were added onto the plates and incubated at 4° C. with gentle shaking for 1 hr.
(§3) The plate was then washed with cold PBS and an anti-mouse IgG Fc specific Ab (Jackson ImmunoReserach; West Grove, Pa.) labeled with sulfo-ruthenium tag was added to the plate as the detection reagent. The plate was incubated at 4° C. with gentle shaking for 1 hr. After incubation the plate was washed again, and MSD read buffer (MSD; Gaithersburg, Md.) was added onto the wells. The plate was read with a MSD SectorÒ imager 6000. The data was graphed and analyzed using KaleidaGraph software (Synergy Software; Reading, Pa.) to determine IC₅₀ values.

[7] = biological target: T1, human Ly6E, N-terminal gD-tagged, …; assay: cell-based Ly6E competitive binding assay, human Ly6E; competitor mouse 9B12
Procedure: as §2
as §3, with “The plate was incubated at 4° C. with gentle shaking for 1 hr.” left out

[8] = biological target: T1, human Ly6E, N-terminal gD-tagged, …; assay: Scatchard analysis (125I antibody) on PC3 cells expressing gD-tagged human Ly6E
Procedure: as §1

[9] = biological target: T3, Cynomolgus monkey Ly6E, N-terminal …; assay: Scatchard analysis (125I antibody) on PC3 cells expressing gD-tagged cyno Ly6E
Procedure: as §1

[10] = biological target: T3, Cynomolgus monkey Ly6E, N-terminal …; assay: cell-based Ly6E competitive binding assay, cyno Ly6E; competitor mouse 9B12
[11] = biological target: T1, human Ly6E, N-terminal gD-tagged, …; assay: cell-based Ly6E competitive binding assay on human Ly6E PC3 cells; competitor mouse 9B12
Procedure: as §2, §3

Question: Which results are given for anti-gD mAb (antibody)?
Answer: Kd [1]: 2 nM; Sites/Cell [1]: 53000 sites/cell; Kd [2]: 1.1 nM; Sites/Cell [2]: 13000 sites/cell

B1: chimeric 9B12 (antibody, V domains shown)
VH: QVQLKESGPGLVAPSQSLSLTCTVSGFSLTGYSVNWVRQPPGKGLEWLGMIWGDGSTDYNSALKSRLTISKDNSKSQVFLKMNSLQTDDTARYYCARDYYFNYASWFAYWGPGTLVTVSA
VL: DIQMTQTTSSLSASLGDRVTISCSASQGISNYLNWYQQKPDGTVKLLIYYTSNLHSGVPSRFSGSGSGTDYSLTISNLEPEDIATYYCQQYSELPWTFGGGTKVEIK
notes: Chimeric IgG with the mouse 9B12 variable domains; also called ch9B12; Ch 9B12
Question: B1 was tested. Which Kd [3] did it give?
Answer: The Kd was 4 nM.

Question: And the Kd [4]?
Answer: Its Kd is 6 nM.

Question: And the Kd [5]?
Answer: The Kd was 4 nM.

Question: What about the IC50 [6] of the same molecule?
Answer: Its IC50 is 3 nM and 6 nM and 5 nM.

Question: What about the Kd [7] of the same molecule?
Answer: The Kd was 3 to 6 nM.

Question: And the Kd [8]?
Answer: The Kd was 2 nM.

Question: What about the Kd [9] of the same molecule?
Answer: The Kd was 2.9 nM.

Question: And the Kd [10]?
Answer: Its Kd is 5 to 7 nM.

B2: hu9B12.v12 (antibody, V domains shown)
VH: EVQLVESGPALVKPTQTLTLTCTVSGFSLTGYSVNWIRQPPGKALEWLGMIWGDGSTDYNSALKSRLTISKDTSKNQVVLTMTNMDPVDTATYYCARDYYFNYASWFAYWGQGTLVTVSS
VL: DIQMTQSPSSLSASVGDRVTITCSASQGISNYLNWYQQKPGKTVKLLIYYTSNLHSGVPSRFSGSGSGTDYTLTISSLQPEDFATYYCQQYSELPWTFGQGTKVEIK
notes: Expressed and tested as IgG; Iodinated (125I) tracer plus unlabeled antibody in the Scatchard analysis; also called humanized anti-Ly6E antibody
Question: How did the Kd [3] turn out when B2 was run?
Answer: The Kd was 4 nM.

Question: What about the Kd [4] of the same molecule?
Answer: The Kd was 7 nM.

Question: And the Kd [5]?
Answer: The Kd was 14 nM.

Question: What about the IC50 [6] of the same molecule?
Answer: Its IC50 is 15 nM and 16 nM.

Question: And the Kd [7]?
Answer: Its Kd is 15 to 19 nM.

Question: And the Kd [8]?
Answer: The Kd was 4 nM.

Question: And the Kd [9]?
Answer: Its Kd is 7.9 nM.

Question: And the Kd [10]?
Answer: The Kd was 16 to 40 nM.

B3: humanized 9B12 variant v8 (antibody, V domains shown)
VH: EVQLVESGGGLVQPGGSLRLSCAASGFSLTGYSVNWVRQAPGKGLEWVGMIWGDGSTDYNSALKSRFTISRDNSKNTLYLQMNSLRAEDTAVYYCARDYYFNYASWFAYWGQGTLVTVSS
VL: DIQMTQSPSSLSASVGDRVTITCSASQGISNYLNWYQQKPGKTVKLLIYYTSNLHSGVPSRFSGSGSGTDFTLTISSLQPEDFATYYCQQYSELPWTFGQGTKVEIK
notes: IgG. k1 graft 43+44 / VH3 graft; Residue change derived
Question: Does B3 bind [11]?
Answer: Result: no binding

B4: humanized 9B12 variant v3 (antibody, V domains shown)
VH: EVQLVESGGGLVQPGGSLRLSCAASGFSLTGYSVNWVRQAPGKGLEWVGMIWGDGSTDYNSALKSRFTISRDNSKNTLYLQMNSLRAEDTAVYYCARDYYFNYASWFAYWGQGTLVTVSS
VL: DIQMTQSPSSLSASVGDRVTITCSASQGISNYLNWYQQKPGKAPKLLIYYTSNLHSGVPSRFSGSGSGTDFTLTISSLQPEDFATYYCQQYSELPWTFGQGTKVEIK
notes: Light chain changes derived
Question: Does B4 bind [11]?
Answer: Result: no binding

B5: humanized 9B12 variant v13 (antibody, V domains shown)
VH: EVQLVESGGGLVQPGGSLRLSCAASGFSLTGYSVNWVRQAPGKGLEWVGMIWGDGSTDYNSALKSRFTISRDNSKNTLYLQMNSLRAEDTAVYYCARDYYFNYASWFAYWGQGTLVTVSS
VL: DIQMTQSPSSLSASVGDRVTITCSASQGISNYLNWYQQKPGKTVKLLIYYTSNLHSGVPSRFSGSGSGTDYTLTISSLQPEDFATYYCQQYSELPWTFGQGTKVEIK
notes: IgG. k1 graft 43+44+71 / VH3 graft
Question: Does B5 bind [11]?
Answer: Result: no binding

B6: humanized 9B12 variant v6 (antibody, V domains shown)
VH: EVQLVESGPALVKPTQTLTLTCTFSGFSLTGYSVNWIRQPPGKALEWLGMIWGDGSTDYNSALKSRLTISKDTSKNQVVLTMTNMDPVDTATYYCARDYYFNYASWFAYWGQGTLVTVSS
VL: DIQMTQSPSSLSASVGDRVTITCSASQGISNYLNWYQQKPGKTVKLLIYYTSNLHSGVPSRFSGSGSGTDFTLTISSLQPEDFATYYCQQYSELPWTFGQGTKVEIK
notes: IgG. k1 graft 43+44 / VH2 graft + 49; Residue changes derived
Question: Does B6 bind [11]?
Answer: Result: no binding

B7: humanized 9B12 variant v11 (antibody, V domains shown)
VH: EVQLVESGPALVKPTQTLTLTCTFSGFSLTGYSVNWIRQPPGKALEWLGMIWGDGSTDYNSALKSRLTISKDTSKNQVVLTMTNMDPVDTATYYCARDYYFNYASWFAYWGQGTLVTVSS
VL: DIQMTQSPSSLSASVGDRVTITCSASQGISNYLNWYQQKPGKTVKLLIYYTSNLHSGVPSRFSGSGSGTDYTLTISSLQPEDFATYYCQQYSELPWTFGQGTKVEIK
notes: IgG. k1 graft 43+44+71 / VH2 graft + 49; Residue change derived
Question: Does B7 bind [11]?
Answer: Result: no binding
